For series [1], the system named is designed zinc finger (Jantz and Berg, 2010) (synthetic construct). The series is described as follows: fluorescence anisotropy. The following applies: fluorescein (6-FAMK) in place of T9 of reverse strand; 25 mM Hepes pH 7.5, 50 mM NaCl, 1 mM TCEP; FA: 1 nM FAM-dsDNA, 20 min RT, read at 25°C; EMSA: 200 nM dsDNA, 0.78-30 µM protein, 30 min RT, native PAGE at 4°C. (In fluorescence polarisation assays a small probe gives low polarisation when free and higher when bound to something large.)

For series [2], the system named is PkKKT2a central domain (551-679) (Perkinsela sp. CCAP 1560/4). The series is described as follows: fluorescence anisotropy. The conditions noted are these: fluorescein (6-FAMK) in place of T37 of forward strand; 25 mM Hepes pH 7.5, 50 mM NaCl, 1 mM TCEP; FA: 1 nM FAM-dsDNA, 20 min RT, read at 25°C; EMSA: 200 nM dsDNA, 0.78-30 µM protein, 30 min RT, native PAGE at 4°C.

The record followed here is publication PMC8178753.

“CGATCGTTGAGGCAGAACCTGATCA (double strand) [designed DNA FAM (BA3083)]” yielded a Kd in series [1] of 0.008 µM.

“AGGTAACTAGAAGAATTGTAATATTCTAAATGTTGATCCATTTGAATCAT (double strand) [50 mer 26% GC FAM (BA2216)]” displayed a Kd in series [2] of 0.5 µM. Same read-out and setting: to “CAATATGTAAGGTGTTTTGGTGTAAAACACGCATTCTTGCATAACATGCA (double strand) [50 mer CEN FAM (BA1674)]” belongs 0.5 µM; to “CGCAGATCCGCGGGGCCCGTGCCGACGCGCGGGCATTGTCCGTGAGGTGA (double strand) [50 mer 74% GC FAM (BA2218)]”, 0.5 µM.

As a reminder, the Kd is the concentration at which binding is half-saturated.
